Source: publication PMC9365698, “A physical wiring diagram for the human immune system” (Nature, 2022)

How the values were obtained:
Assay in all cases: SAVEXIS (scalable arrayed multi-valent extracellular interaction screen); biotinylated bait (100 fmol per well) captured on streptavidin-coated 384-well plates; prey multimerised on streptavidin-HRP (25 fmol protein with 6.25 fmol SAV-HRP); 60 min at 20 °C in 2% BSA in HBS pH 7.4 (1 mM MgCl2, 2 mM CaCl2); desthiobiotin washes; TMB absorbance at 650 nm; both bait-prey orientations; primary and secondary screen
Settings in all cases: both partners purified
PVR = biological target: T1, PVR (human, UniProt P15151 21-343, biotin on the biotin-acceptor site (enzymatic, co-transfected BirA))
T1 construct: PVR (poliovirus receptor), human, full ectodomain
T1 sequence (looked up): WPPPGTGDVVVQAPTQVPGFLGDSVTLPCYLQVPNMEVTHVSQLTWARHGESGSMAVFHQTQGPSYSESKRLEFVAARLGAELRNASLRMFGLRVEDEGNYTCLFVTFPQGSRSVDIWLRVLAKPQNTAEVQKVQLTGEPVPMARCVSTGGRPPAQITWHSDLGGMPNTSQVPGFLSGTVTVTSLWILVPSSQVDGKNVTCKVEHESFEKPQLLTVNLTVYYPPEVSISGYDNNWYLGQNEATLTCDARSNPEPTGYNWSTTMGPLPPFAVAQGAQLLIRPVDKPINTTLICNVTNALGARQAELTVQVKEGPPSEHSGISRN

[1] = biological target: T2, Plasmodium falciparum P41 protein (Plasmodium falciparum, UniProt Q8I1Y0 21-378)
T2 construct: P41 protein of Plasmodium falciparum; P41 was the bait in two control wells of every screening plate
T2 sequence: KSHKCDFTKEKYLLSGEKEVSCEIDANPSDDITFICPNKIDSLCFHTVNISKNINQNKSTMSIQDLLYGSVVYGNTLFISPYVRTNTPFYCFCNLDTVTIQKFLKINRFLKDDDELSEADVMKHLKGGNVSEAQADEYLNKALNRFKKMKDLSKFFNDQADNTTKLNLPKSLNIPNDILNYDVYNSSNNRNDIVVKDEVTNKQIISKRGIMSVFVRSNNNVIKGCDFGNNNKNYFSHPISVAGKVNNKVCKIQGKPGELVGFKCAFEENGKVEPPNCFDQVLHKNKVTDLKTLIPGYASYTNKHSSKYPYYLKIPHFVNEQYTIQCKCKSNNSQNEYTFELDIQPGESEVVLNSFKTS

JAG1 = biological target: T3, JAG1 (human, UniProt P78504 34-1067, biotin on the biotin-acceptor site (enzymatic, co-transfected BirA))
T3 construct: JAG1 (Jagged-1), human, full ectodomain; also called Jagged ligands

B1: KIR2DL5A (receptor, human, UniProt Q8N109 22-238, looked up)
chain: HEGGQDKPLLSAWPSAVVPRGGHVTLLCRSRLGFTIFSLYKEDGVPVPELYNKIFWKSILMGPVTPAHAGTYRCRGSHPRSPIEWSAPSNPLVIVVTGLFGKPSLSAQPGPTVRTGENVTLSCSSRSSFDMYHLSREGRAHEPRLPAVPSVNGTFQADFPLGPATHGGTYTCFGSLHDSPYEWSDPSDPLLVSVTGNSSSSSSSPTEPSSKTGIRRH
modifications: biotin on the biotin-acceptor site (enzymatic, co-transfected BirA)
notes: KIR2DL5A, human, full ectodomain
B1: binds (PVR).

B2: Plasmodium falciparum P12 (natural protein)
chain: HKNLTCDFNDVYKLEFHPNQQTSVTKLCNLTPNVLEKVTIKCGSDKLNYNLYPPTCFEEVYASRNMMHLKKIKEFVIGSSMFMRRSLTPNKINEVSFRIPPNMMPEKPIYCFCENKKTITINGSNGNPSSKKDIINRGIVEIIIPSLNEKVKGCDFTTSESTIFSKGYSINEISNKSSNNQQDIVCTVKAHANDLIGFKCPSNYSVEPHDCFVSAFNLSGKNENLENKLKLTNIIMDHYNNTFYSRLPSLISDNWKFFCVCSKDNEKKLVFTVEASISSSNTKLASRDNTYQDYISN
notes: P12 protein of Plasmodium falciparum; P12 was presented as a prey (multimerised on streptavidin-HRP) for the positive control
B2: binds [1].

B3: VASN (receptor, human, UniProt Q6EMK4 24-575, looked up)
chain: CPSGCQCSQPQTVFCTARQGTTVPRDVPPDTVGLYVFENGITMLDAGSFAGLPGLQLLDLSQNQIASLPSGVFQPLANLSNLDLTANRLHEITNETFRGLRRLERLYLGKNRIRHIQPGAFDTLDRLLELKLQDNELRALPPLRLPRLLLLDLSHNSLLALEPGILDTANVEALRLAGLGLQQLDEGLFSRLRNLHDLDVSDNQLERVPPVIRGLRGLTRLRLAGNTRIAQLRPEDLAGLAALQELDVSNLSLQALPGDLSGLFPRLRLLAAARNPFNCVCPLSWFGPWVRESHVTLASPEETRCHFPPKNAGRLLLELDYADFGCPATTTTATVPTTRPVVREPTALSSSLAPTWLSPTEPATEAPSPPSTAPPTVGPVPQPQDCPPSTCLNGGTCHLGTRHHLACLCPEGFTGLYCESQMGQGTRPSPTPVTPRPPRSLTLGIEPVSPTSLRVGLQRYLQGSSVQLRSLRLTYRNLSGPDKRLVTLRLPASLAEYTVTQLRPNATYSVCVMPLGPGRVPEGEEACGEAHTPPAVHSNHAPVTQAREGNLP
modifications: biotin on the biotin-acceptor site (enzymatic, co-transfected BirA)
notes: VASN (vasorin), human, full ectodomain; also called vasorin
B3: binds (JAG1).
